Laboratory results as given in publication PMC5145181, “Structural Mapping and Functional Characterization of Zebrafish Class B G-Protein Coupled Receptor (GPCR) with Dual Ligand Selectivity towards GLP-1 and Glucagon” (PLoS ONE, 2016).

What was measured:
[1] = molecular target: zebrafish class B G-protein coupled receptor (zfGPCR), dual zfGLP-1R/GCGR (zebrafish (Danio rerio)); test: radioligand binding; competitive displacement of 125I-hGLP-1(7-36)amide (100,000 cpm/well) from recombinant zfGPCR on transiently transfected COS-7 cells in 24-well plates; cold peptide pM to μM in triplicate; 16-18 h at 4°C; IC50 by four-parameter logistic fit (Prism 4)
[2] = molecular target: zebrafish class B G-protein coupled receptor (zfGPCR), dual zfGLP-1R/GCGR (zebrafish (Danio rerio)); test: radioligand binding; competitive displacement of 125I-exendin(9-39) (100,000 cpm/well) from recombinant zfGPCR on transiently transfected COS-7 cells in 24-well plates; cold peptide pM to μM in triplicate; 16-18 h at 4°C; IC50 by four-parameter logistic fit (Prism 4)
[3] = molecular target: zebrafish class B G-protein coupled receptor (zfGPCR), dual zfGLP-1R/GCGR (zebrafish (Danio rerio)); test: radioligand binding

Sequence of human GLP-1(7-36)amide (hGLP-1) (P01275 98-127): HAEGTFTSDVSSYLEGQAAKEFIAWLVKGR
Sequence of human glucagon (P01275 53-81): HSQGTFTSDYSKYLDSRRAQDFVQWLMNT

| IC50 [1] [nM] | IC50 [3] [nM] | Substance | IC50 [2] [nM] |
| --- | --- | --- | --- |
| 3.6 | 178 | human GLP-1(7-36)amide (hGLP-1) (from UniProt P01275 98-127) (peptide) | – |
| – | 67 | human glucagon (from UniProt P01275 53-81) (peptide) | – |
| 2.1 | 290 | zebrafish GLP-1 (zfGLP-1) (peptide) | – |
| 2.4 | 106 | zebrafish glucagon (peptide) | – |

| Substance | IC50 [1] [nM] | IC50 [3] [nM] | IC50 [2] [nM] |
| --- | --- | --- | --- |
| exendin(9-39) (peptide) | 5.8 | – | 4.21 |
| exendin-4 (from UniProt P26349 48-87) (peptide) | 0.48 | – | 1 |
